Source: IntAct's records for PubMed 24636949

B1: Unconventional myosin-Ic (Homo sapiens), O00159-2 (parent)
chain: MESALTARDRVGVQDFVLLENFTSEAAFIENLRRRFRENLIYTYIGPVLVSVNPYRDLQIYSRQHMERYRGVSFYEVPPHLFAVADTVYRALRTERRDQAVMISGESGAGKTEATKRLLQFYAETCPAPERGGAVRDRLLQSNPVLEAFGNAKTLRNDNSSRFGKYMDVQFDFKGAPVGGHILSYLLEKSRVVHQNHGERNFHIFYQLLEGGEEETLRRLGLERNPQSYLYLVKGQCAKVSSINDKSDWKVVRKALTVIDFTEDEVEDLLSIVASVLHLGNIHFAANEESNAQVTTENQLKYLTRLLSVEGSTLREALTHRKIIAKGEELLSPLNLEQAAYARDALAKAVYSRTFTWLVGKINRSLASKDVESPSWRSTTVLGLLDIYGFEVFQHNSFEQFCINYCNEKLQQLFIELTLKSEQEEYEAEGIAWEPVQYFNNKIICDLVEEKFKGIISILDEECLRPGEATDLTFLEKLEDTVKHHPHFLTHKLADQRTRKSLGRGEFRLLHYAGEVTYSVTGFLDKNNDLLFRNLKETMCSSKNPIMSQCFDRSELSDKKRPETVATQFKMSLLQLVEILQSKEPAYVRCIKPNDAKQPGRFDEVLIRHQVKYLGLLENLRVRRAGFAYRRKYEAFLQRYKSLCPETWPTWAGRPQDGVAVLVRHLGYKPEEYKMGRTKIFIRFPKTLFATEDALEVRRQSLATKIQAAWRGFHWRQKFLRVKRSAICIQSWWRGTLGRRKAAKRKWAAQTIRRLIRGFVLRHAPRCPENAFFLDHVRTSFLLNLRRQLPQNVLDTSWPTPPPALREASELLRELCIKNMVWKYCRSISPEWKQQLQQKAVASEIFKGKKDNYPQSVPRLFISTRLGTDEISPRVLQALGSEPIQYAVPVVKYDRKGYKPRSRQLLLTPNAVVIVEDAKVKQRIDYANLTGISVSSLSDSLFVLHVQRADNKQKGDVVLQSDHVIETLTKTALSANRVNSININQGSITFAGGPGRDGTIDFTPGSELLITKAKNGHLAVVAPRLNSR

Variants of: B1
Settings: with 1433b_human YWHAB

Variant	effect of a mutation on the interaction
S701A	disrupting interaction strength
S701E	increasing interaction strength
